Data reported in the supplement of paper PMC10126150.
± gives the standard deviation of the averaged measurements.

system: ATP; assay: switch fluorescence ratio, 500 uM ATP over buffer (Cy3 cluster intensity, sum of 5 cycles each) (fold (ratio)); higher = stronger signal-on switching upon ATP binding; sequences stand for … in TCGTCGGCAGCGTCAGATGTGTATAAGAGACAGTTTTTTTTTTTTTTTTTTTTTTTTT…TC; conditions: aptamer strand: ATP DNA aptamer (quencher-CACCTGGGGGAGTATTGCGGAGGAAGG + anchor), 100 nM annealed; ATP concentration: 500 uM
Method in brief: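 The quencher-labelled ATP aptamer, at 100 nM, was annealed to Cy3-labelled switching-strand clusters on a modified Illumina MiSeq flow-cell. The clusters were imaged in selection buffer, then after 15 min with 500 uM ATP at 22 °C, and this buffer/ATP cycle ran five times with NaOH stripping and re-annealing between runs. Per-cluster fluorescence ratios, summed target-cycle over summed buffer-cycle Cy3 intensity, were averaged per switch-domain sequence. Clusters outside 100-1000 RFU were excluded.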
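Also: ATP exposure 15 min at 22 °C before imaging.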

Sequence	switch fluorescence ratio
TCGGTAGTTA	1.01 ± 0.047
TCGGTATTGG	1.09 ± 0.1
TCGGTCGGGA	1.022 ± 0.0017
TCGGTCTTTT	0.974 ± 0.029
TCGGTGATTG	0.991 ± 0.016
TCGGTGGGGT	0.982 ± 0.0061
TCGGTGGGTG	1.012 ± 0.0066
TCGGTTAGTG	0.991 ± 0.036
TCGGTTGGTG	0.969 ± 0.042
TCGGTTGTCC	0.978 ± 0.018
TCGGTTTTAA	1.01 ± 0.036
TCGGTTTTTT	1.01 ± 0.038
TCGTAAACTT	1.025 ± 0.005
TCGTAACTGT	1.03 ± 0.016
TCGTAAGGGT	1.18 ± 0.26
TCGTACACGT	0.978 ± 0.015
TCGTACAGTA	1.02 ± 0.029
TCGTACGTTG	1.01 ± 0.022
TCGTACTTAT	1.12 ± 0.18
TCGTAGGCAT	1.004 ± 0.0036
TCGTAGTCGT	0.995 ± 0.064
TCGTATCAAG	0.969 ± 0.026
TCGTATGTTA	0.97 ± 0.014
TCGTATTGGG	1 ± 0.056
TCGTCAAGTT	1.007 ± 0.01

Sequence	switch fluorescence ratio
TCGTCAGCGA	2.77 ± 0.06
TCGTCAGTG	0.991 ± 0.012
TCGTCGCGTA	0.978 ± 0.14
TCGTCGGGGA	1.01 ± 0.014
TCGTCGGTGG	1 ± 0.011
TCGTCGTCCT	1.02 ± 0.024
TCGTCTGGTT	0.988 ± 0.03
TCGTGACTGT	1.02 ± 0.065
TCGTGCTACA	0.97 ± 0.041
TCGTGGCGAG	1.01 ± 0.028
TCGTGGCTGT	1 ± 0.042
TCGTGGGAGC	1.014 ± 0.0089
TCGTGGGGAT	1 ± 0.021
TCGTGGGTGG	1.03 ± 0.056
TCGTGTACGC	1 ± 0.023
TCGTGTAGGG	0.984 ± 0.014
TCGTGTATGT	1.014 ± 0.0039
TCGTGTTCGG	0.971 ± 0.029
TCGTTAATGT	1.01 ± 0.035
TCGTTCATGA	1 ± 0.061
TCGTTCGCGG	1.12 ± 0.015
TCGTTCGTCT	0.973 ± 0.039
TCGTTGACGT	0.985 ± 0.04
TCGTTGAGGC	1.037 ± 0.0072
TCGTTGTCGT	1.04 ± 0.03

Sequence	switch fluorescence ratio
TCGTTGTGAG	1.004 ± 0.0089
TCGTTGTGTA	0.995 ± 0.03
TCGTTTACTT	1.06 ± 0.13
TCGTTTAGGA	0.974 ± 0.031
TCGTTTAGGT	0.977 ± 0.026
TCGTTTATTA	1 ± 0.089
TCGTTTGATT	1.01 ± 0.019
TCGTTTGTTT	0.982 ± 0.04
TCGTTTTCGT	0.9787 ± 0.009
TCGTTTTTTT	1.07 ± 0.13
TCTAAAAAAG	0.991 ± 0.028
TCTAAAAGAT	0.9771 ± 0.0026
TCTAAAATG	0.972 ± 0.029
TCTAAATGGG	1.029 ± 0.005
TCTAACAGCC	1.06 ± 0.028
TCTAAGTTTT	0.97 ± 0.01
TCTAATACAG	1.03 ± 0.032
TCTAATATAC	1.62 ± 0.028
TCTACGAGAG	1.04 ± 0.048
TCTAGATAAA	1.04 ± 0.052
TCTAGATGGT	0.992 ± 0.025
TCTAGGGGAG	1.007 ± 0.0099
TCTAGGGGGT	0.9766 ± 0.0071
TCTAGGTTTT	1.005 ± 0.0047
TCTAGTTAGG	1.0115 ± 0.00098

Sequence	switch fluorescence ratio
TCTATAGGGG	1 ± 0.05
TCTATATTAG	1.02 ± 0.023
TCTATGAAAA	0.9818 ± 0.004
TCTATGGGAC	1.05 ± 0.013
TCTATTCTCG	1.013 ± 0.0056
TCTATTTGGT	0.9827 ± 0.0098
TCTCACGATT	1.022 ± 0.0061
TCTCAGGGGA	1.16 ± 0.11
TCTCAGGTTG	1.072 ± 0.0058
TCTCCATTGC	1.67 ± 0.035
TCTCCGTCCT	1.33 ± 0.025
TCTCCTGGCT	1.01 ± 0.014
TCTCGGATGT	0.99 ± 0.039
TCTCGGGGTA	0.979 ± 0.046
TCTCGGGTCT	1.02 ± 0.045
TCTCGGGTTT	0.9951 ± 0.0055
TCTCGTAAAT	1.034 ± 0.01
TCTCGTACAG	0.982 ± 0.024
TCTCTGAGGA	0.985 ± 0.013
TCTCTGGCAG	1.17 ± 0.17
TCTGAAACCG	1.18 ± 0.12
TCTGAAATGG	1.04 ± 0.047
TCTGAAGGGG	1.12 ± 0.11
TCTGAATGG	1.01 ± 0.033
TCTGACTTGA	0.968 ± 0.018
